# Laboratory results published in US11572561B2, “Method and composition for inhibiting growth of bacterium” (priority 2020, dated 2023).
# “Also recorded” adds a separate entry of the source.
# How the values were obtained:
# [1] = system: AS1974 target genes (mexD, chtA, prc, major facilitator superfamily, pilD, ndvB); test: Real-time qPCR of AS1974 target genes in AS1974-overexpressing resistance strain; type: cell-based, P. aeruginosa; settings: R3-AS1974 vs R3-EV (empty vector)
# Protocol: One of the major functions of sRNAs is to suppress the target gene expression under particular conditions or in response to external stimuli. To find out the regulatory roles of AS1974 sRNAs in various drug resistance pathways, the inventors sequenced the transcriptomes of six strains, and they used newly developed program to correlate sRNA repertoires with transcriptomes. […] To validate the transcriptome result, real-time qPCR experiments were performed to measure and compare the transcript levels of these genes in both drug-susceptible and drug-resistant strains.
# To further investigate if these drug-resistant genes were directly controlled by this sRNA, AS1974 was overexpressed in the resistance strain and their transcript levels were measured by qPCR. Empty vector was used as a negative control. […]
# Six P. aeruginosa strains, S1, S2, S3, R1, R2, and R3, were grown at 37° C. overnight in nutrient broth with shaking at 250 rpm and harvested at stationary phase (OD600=1.5-1.7). […] Melting curves were determined by an auto-dissociation program. […] The results were expressed as the means of at least 3 independent experiments. Data are presented as mean±SD, and comparisons were analyzed using unpaired t test (two tailed: *p<0.05, **p<0.01, and ***p<0.001).
# [2] = system: resistance strains of P. aeruginosa (R3); test: MIC measurement (microbroth dilution) of resistance strain overexpressing sRNA; type: cell-based; settings: transformed R3 strain
# Text: Different classes of antibiotics including aminoglycoside, cephalosporin, beta-lactam, extended-spectrum penicillin beta-lactam, fluoroquinolone were used. Antibiotics susceptibility and resistance strains are highlighted. R3-AS1974, R3-AS2779 and R3-IGR2780 represent R3 strains transformed with the corresponding sRNA while R3-AS1974-Reverse represents R3 strains transformed the sRNA which sequence was reverse and complementary to AS1974 (negative control). R3-empty vector was used as vector control. The strain ATCC27853 was used for quality control.
# To find out if the sRNAs directly play a role in the intrinsic drug resistance of bacteria, each of the sRNAs was overexpressed in the resistance strains of P. aeruginosa, and MIC measurements were performed. […]
# The MICs of 11 antibiotics, including penicillin G, cefotaxime, chloramphenicol, tetracycline, erythromycin, lincomycin, ciprofloxacin (Sigma, St. Louis, Mo., USA), levofloxacin (Daiichi Sankyo, Tokyo, Japan), gatifloxacin (Bristol-Myers Squibb, Moreton, UK), moxifloxacin (Bayer Healthcare Pharmaceuticals, Berlin, Germany), and linezolid (Pfizer, NJ, USA), were determined using the microbroth dilution method, according to the Clinical and Laboratory Standards Institute (CLSI). […]
# [3] = system: total transcripts of P. aeruginosa; test: Transcriptome profile comparison of AS1974-transformed and control strains (off-target effect); type: cell-based; settings: AS1974-transformed vs control strains
molecule,measurement,setting,value
"AS1974: sRNA of P. aeruginosa, SEQ ID NO: 2, located at the antisense region of mexR (nucleic acid, listed as Pseudomonas aeruginosa) GAATGTTCTTAAATATCCTCAAGCGGTTGCGCGGCCAGGCACTGGTCGAGGAGATGCACCAGGGTGGCCTGTTCCACCGGGGTGAGCGGGGCAAACAACTCGTCATGCACGCGTGACATGATGGCCTC",target gene expression upon overexpression of sRNA,[1],downregulated
same,resistance of the AS1974-overexpressed strain to chloramphenicol,[2]; chloramphenicol,still showed resistance
same,effect of sRNA overexpression on MIC / antibiotic susceptibility of the resistance strain,"[2]; aminoglycoside, cephalosporin, meropenem, ertapenem, empty vector control",hypersusceptibility; also recorded: transformed the bacteria from resistant strains to drug-sensitive strains
same,total transcripts affected (off-target effect),[3],less than 1%
